Results reported in IntAct's records for PubMed 23940353.

B1: ADP-ribosylation factor 6 (Homo sapiens), P62330 (parent)
chain: MGKVLSKIFGNKEMRILMLGLDAAGKTTILYKLKLGQSVTTIPTVGFNVETVTYKNVKFNVWDVGGQDKIRPLWRHYYTGTQGLIFVVDCADRDRIDEARQELHRIINDREMRDAIILIFANKQDLPDAMKPHEIQEKLGLTRIRDRNWYVQPSCATSGDGLYEGLTWLTSNYKS
B2: Cytohesin-3 (Homo sapiens), O43739-2 (parent)
chain: MDEDGGGEGGGVPEDLSLEEREELLDIRRRKKELIDDIERLKYEIAEVMTEIDNLTSVEESKTTQRNKQIAMGRKKFNMDPKKGIQFLIENDLLQSSPEDVAQFLYKGEGLNKTVIGDYLGERDEFNIKVLQAFVELHEFADLNLVQALRQFLWSFRLPGEAQKIDRMMEAFASRYCLCNPGVFQSTDTCYVLSFAIIMLNTSLHNHNVRDKPTAERFIAMNRGINEGGDLPEELLRNLYESIKNEPFKIPEDDGNDLTHTFFNPDREGWLLKLGGRVKTWKRRWFILTDNCLYYFEYTTDKEPRGIIPLENLSIREVEDPRKPNCFELYNPSHKGQVIKACKTEADGRVVEGNHVVYRISAPSPEEKEEWMKSIKASISRDPFYDMLATRKRRIANKK

Assays:
[1] = variants of: B1; conditions: with CYTH3, O43739-2
[2] = variants of: B1; conditions: with CYTH1, Q15438-2
Chain of CYTH1, Q15438-2 (Q15438 other isoform, or with tags, fused parts or gaps): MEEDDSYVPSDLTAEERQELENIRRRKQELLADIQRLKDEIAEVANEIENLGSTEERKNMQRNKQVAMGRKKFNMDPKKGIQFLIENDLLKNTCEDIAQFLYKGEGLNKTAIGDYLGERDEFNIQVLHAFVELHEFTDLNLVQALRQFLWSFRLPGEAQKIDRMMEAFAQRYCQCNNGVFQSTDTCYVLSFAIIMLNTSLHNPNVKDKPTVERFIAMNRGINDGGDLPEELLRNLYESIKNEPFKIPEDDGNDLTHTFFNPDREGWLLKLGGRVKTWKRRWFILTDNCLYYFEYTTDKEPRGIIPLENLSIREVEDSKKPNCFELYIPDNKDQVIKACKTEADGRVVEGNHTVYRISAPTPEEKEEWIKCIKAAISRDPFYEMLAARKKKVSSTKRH

[3] = variants of: B1; conditions: with CYTH2, Q99418-2
Chain of CYTH2, Q99418-2 (Q99418 other isoform, or with tags, fused parts or gaps): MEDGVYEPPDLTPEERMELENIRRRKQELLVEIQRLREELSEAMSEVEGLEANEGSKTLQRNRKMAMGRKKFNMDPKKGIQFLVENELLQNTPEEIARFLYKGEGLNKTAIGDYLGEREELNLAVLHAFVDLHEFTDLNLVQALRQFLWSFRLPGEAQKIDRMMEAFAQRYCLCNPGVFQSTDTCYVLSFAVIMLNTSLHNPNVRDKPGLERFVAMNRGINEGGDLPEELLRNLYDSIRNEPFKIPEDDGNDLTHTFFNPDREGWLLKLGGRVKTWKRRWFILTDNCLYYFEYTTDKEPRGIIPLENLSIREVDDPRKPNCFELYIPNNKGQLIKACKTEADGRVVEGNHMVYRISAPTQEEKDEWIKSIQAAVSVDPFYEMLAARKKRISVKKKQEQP

[4] = variants of: B2; conditions: with arf6_human ARF6, P62330

effect of a mutation on the interaction [1]	effect of a mutation on the interaction [2]	effect of a mutation on the interaction [3]	effect of a mutation on the interaction [4]	Variant
with no effect	with no effect	with no effect		Q67L
			decreasing interaction strength	L388A
			decreasing interaction strength	K392A
